Source: PMC3512392 (The EMBO Journal, 2012)

Biological target: the molecule itself
Assay: crystal structure

B1: SNX1 (301–522) (domain or fragment)
chain: KMNESDIWFEEKLQEVECEEQRLRKLHAVVETLVNHRKELALNTAQFAKSLAMLGSSEDNTALSRALSQLAEVEEKIEQLHQEQANNDFFLLAELLSDYIRLLAIVRAAFDQRMKTWQRWQDAQATLQKKREAEARLLWANKPDKLQQAKDEILEWESRVTQYERDFERISTVVRKEVIRFEKEKSKDFKNHVIKYLETLLYSQQQLAKYWEAFLPEAKAIS
  binding result: binds
